The text below walks through data of article PMC11302882, “tRF-27 competitively Binds to G3BPs and Activates MTORC1 to Enhance HER2 Positive Breast Cancer Trastuzumab Tolerance”.

One data set deals with T1, HA-G3BP2 full length (UniProt Q9UN86 1-482).
T1 sequence: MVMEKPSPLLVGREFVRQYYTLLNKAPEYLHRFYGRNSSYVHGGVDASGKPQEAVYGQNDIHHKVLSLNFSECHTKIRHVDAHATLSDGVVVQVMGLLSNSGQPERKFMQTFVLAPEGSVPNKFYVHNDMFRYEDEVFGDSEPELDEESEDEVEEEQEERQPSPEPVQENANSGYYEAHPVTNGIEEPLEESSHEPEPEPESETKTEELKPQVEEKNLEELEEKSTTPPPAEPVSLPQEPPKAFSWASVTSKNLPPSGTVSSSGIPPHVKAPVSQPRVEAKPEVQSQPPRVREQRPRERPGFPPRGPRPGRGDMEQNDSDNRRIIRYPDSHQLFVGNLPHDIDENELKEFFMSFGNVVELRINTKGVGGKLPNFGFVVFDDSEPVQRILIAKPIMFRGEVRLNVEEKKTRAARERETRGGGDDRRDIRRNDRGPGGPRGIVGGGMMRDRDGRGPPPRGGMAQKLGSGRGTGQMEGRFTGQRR
Briefly: EMSA; not stated; BeyoMag Chemiluminescent RNA EMSA Kit per manufacturer; biotin-RNA pull-down from cell lysates. As to conditions: protein: recombinant; tags: N-terminal HA; chain copies: 2; label: biotin; predicted loop.

Data set [1] has as its target T2, HA-G3BP2 lacking NTF2 domain (UniProt Q9UN86 1-10+134-482, internal_change).
T2 sequence: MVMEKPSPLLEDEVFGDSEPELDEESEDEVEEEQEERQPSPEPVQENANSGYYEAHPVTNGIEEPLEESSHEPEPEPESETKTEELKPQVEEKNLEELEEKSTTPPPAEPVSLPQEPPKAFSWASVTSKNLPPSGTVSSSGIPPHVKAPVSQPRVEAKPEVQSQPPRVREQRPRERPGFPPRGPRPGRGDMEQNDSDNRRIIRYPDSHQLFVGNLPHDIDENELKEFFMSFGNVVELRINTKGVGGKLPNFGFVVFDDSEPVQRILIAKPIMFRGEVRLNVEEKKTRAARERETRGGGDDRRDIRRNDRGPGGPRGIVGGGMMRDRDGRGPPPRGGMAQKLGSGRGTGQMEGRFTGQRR
The description is as above. As to conditions: protein: recombinant; tags: N-terminal HA; label: biotin; predicted loop.

B1: tRF-27 (tRF-27-ZDXPHO53KSN) (ssRNA)
RNA: UUGACUGCAGAUCAAGAGGUCCCCGGU
For the molecule B1, the binding result was “binds” with HA-G3BP2 full length and “no binding” in data set [1].
